In patent publication US20030120037A1 (published 2003):
One block for each molecule: values may come before it.

How the values were obtained:
[1] = molecular target: FPRL1, seven-transmembrane G-protein coupled receptor (human) (UniProt P25090); assay: cell-based or functional assay
[2] = molecular target: T1, FPRL1, seven-transmembrane G-protein coupled receptor (human, UniProt P25090 1-351); assay: Homologous displacement binding on human monocytes (native cells): constant 125I-SAA plus increasing unlabeled SAA, LIGAND/Scatchard analysis. The filing names FPRL1 as the SAA receptor on phagocytes; the receptor on monocytes is not isolated in this panel.
T1 construct: whole, on cells; also called FPRH2; LXA4R
T1 sequence (looked up): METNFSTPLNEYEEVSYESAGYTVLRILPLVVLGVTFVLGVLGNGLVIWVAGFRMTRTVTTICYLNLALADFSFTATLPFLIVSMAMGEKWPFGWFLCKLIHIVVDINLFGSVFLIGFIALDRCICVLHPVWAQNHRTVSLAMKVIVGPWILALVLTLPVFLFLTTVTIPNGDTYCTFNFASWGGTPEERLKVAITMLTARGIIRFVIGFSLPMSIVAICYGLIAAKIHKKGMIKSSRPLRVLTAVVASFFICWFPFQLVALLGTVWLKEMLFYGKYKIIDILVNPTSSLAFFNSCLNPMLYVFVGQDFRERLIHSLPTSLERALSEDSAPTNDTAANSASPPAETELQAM

[3] = molecular target: T2, FPR, classical formyl peptide receptor (human, UniProt P21462 1-350); assay: binding of radiolabeled SAA to receptor-transfected cells
T2 construct: whole, on cells; also called FPR/293 cells
T2 sequence (looked up): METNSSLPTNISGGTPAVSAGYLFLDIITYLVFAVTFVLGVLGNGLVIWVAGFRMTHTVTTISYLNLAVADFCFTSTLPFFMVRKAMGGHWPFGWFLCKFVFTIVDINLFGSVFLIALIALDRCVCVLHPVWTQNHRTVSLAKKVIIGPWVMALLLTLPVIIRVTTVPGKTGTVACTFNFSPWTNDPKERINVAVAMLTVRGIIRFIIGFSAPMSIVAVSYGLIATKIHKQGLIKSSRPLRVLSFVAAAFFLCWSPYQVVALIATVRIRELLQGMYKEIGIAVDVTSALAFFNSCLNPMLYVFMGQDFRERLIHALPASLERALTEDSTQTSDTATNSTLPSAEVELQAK

[4] = molecular target: T1, FPRL1, seven-transmembrane G-protein …; assay: radioligand binding on FPRL1/293 cells; 16 nM 125I-SAA with increasing unlabeled SAA; LIGAND analysis; FPRL1/293 cells; saturation/LIGAND estimate, 42000 sites/cell
[5] = molecular target: T1, FPRL1, seven-transmembrane G-protein …; assay: displacement of 125I-SAA from FPRL1/293 cells by unlabeled SAA (the same value is told for monocytes and neutrophils); homologous displacement of 125I-SAA by unlabeled SAA; FPRL1/293 cells

Molecule: N-formyl-methionyl-leucyl-phenylalanine (peptide)
Ca2+ mobilization in FPRL1 transfected cells (FPRL1/293 cells) [1]: 10 µM

Kd [2]: 34 nM
binding result [3]: no binding
Kd [4]: 64 nM
B1: 125I-labeled recombinant human serum amyloid A (ligand)
chain: MRSFFSFLGEAFDGARDMWRAYSDMREANYIGSDKYFHARGNYDAAKRGPGGVWAAEAISNARENIQRFFGRGAEDSLADQAANEWGRSGKDPNHFRPAGLPEKY
modifications: radio-iodinated on tyrosine and lysine residues with the chloramine T method (125I)
notes: specific activity 5.8 mCi/mg; also called radioiodinated SAA

IC50 [5]: ~50 nM
B2: Recombinant human (rh) serum amyloid A (SAA) (ligand)
chain: B1 chain
notes: Bought from Pepro Tech; also called rhSAA; unlabeled SAA
